The assay addresses T1, CD19抗原 (B lymphocyte antigen CD19) (human, UniProt P15391 20-291, limits assumed, biotin label in Examples 2-4 (site not stated)).
T1 construct: also called CD19-his; CD19-his-biotin; not shown: his tag
T1 sequence (looked up): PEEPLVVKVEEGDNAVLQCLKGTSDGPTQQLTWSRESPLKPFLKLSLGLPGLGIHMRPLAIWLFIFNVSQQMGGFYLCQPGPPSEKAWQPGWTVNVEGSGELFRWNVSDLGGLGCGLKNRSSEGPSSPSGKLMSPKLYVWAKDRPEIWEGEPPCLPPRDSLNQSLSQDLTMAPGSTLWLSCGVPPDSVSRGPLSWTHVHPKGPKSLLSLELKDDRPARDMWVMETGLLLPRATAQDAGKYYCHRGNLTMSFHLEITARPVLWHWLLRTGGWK
The assay can be described thus: ELISA of periplasmic extract dilutions on a CD19-coated plate, OD450. A general note: ELISA stands for enzyme-linked immunosorbent assay.

Where a chain is given by its changes, count along the chain named.

B1: Combo-5 (scFv in periplasmic extract) (scFv)
scFv: EVKLQESGPGLVAPSQSLSVTCTVSGWSLEDYGVSWIRQSPRKGLEWLGGIIGSQTTYYLAGLKSRLTIIKDNSKSQVFLKMNSLQTDDTAIYYCAKHRYYGGSFDMDYWGQGTSVTVSSGGGGSGGGGSGGGGSDIQMTQTTSSLSASLGDRVTISCRASQDISKYLNWYQQKPDGTVKLLIYHTSRLHSGVPSRFSGSGSGTDYSLTISNLEQEDIATYFCQQGNTLPYTFGGGTKLEIT
notes: Soluble scFv in E. coli periplasmic extract (PPE), not purified
In the case of B1, the binding result is “binds”.

B2: Combo-6 (scFv in periplasmic extract) (scFv)
scFv: B1 scFv with G50V, I52W, Q55E, L60N, A61S, G62A
notes: as for B1
Consider B2, for which the binding result was “binds”.

B3: Combo-10 (scFv in periplasmic extract) (scFv)
scFv: EVKLQESGPGLVAPSQSLSVTCTVSGVSLPDYGVSWIRQPPRKGLEWLGVIWGSETTYYNSALKSRLTIIKDNSKSQVFLKMNSLQTDDTAIYYCAKHYYYGGSYAMDYWGQGTSVTVSSGGGGSGGGGSGGGGSDIQMTQTTSSLSASLGDRVTISCRASQPIRRYLNWYQQKPDGTVKLLIYHTSRLHSGVPSRFSGSGSGTDYSLTISNLEQEDIATYFCQQGKKAPLTFGGGTKLEIT
notes: as for B1
Regarding B3, the binding result is given as “binds”.

B4: Combo-7 (scFv in periplasmic extract) (scFv)
scFv: B1 scFv with R99W, D106A
notes: as for B1
B4: the binding result was “binds”.

B5: Combo-14 (scFv in periplasmic extract) (scFv)
scFv: B3 scFv with P40S, Q162M, P163D, R165K, R166K
notes: as for B1
Consider B5, for which the binding result was “binds”.

B6: Combo-13 (scFv in periplasmic extract) (scFv)
scFv: B3 scFv with P40S, Q162M, P163D, R165K, R166K, H185Q, H190A, S191W
notes: as for B1
Turning to B6, the binding result was “binds”.

B7: Combo-9 (scFv in periplasmic extract) (scFv)
scFv: B3 scFv with H185Q, H190A, S191W
notes: as for B1
Turning to B7, the binding result is reported as “binds”.

B8: Combo-8 (scFv in periplasmic extract) (scFv)
scFv: B1 scFv with G50V, I52W, Q55E, L60N, A61S, G62A, R99W, D106A
notes: as for B1
In the case of B8, the binding result is “binds”.

The values are drawn from CN107793479A (SHANGHAI JIBEI BIOLOGICAL TECH CO LTD, dated 2018).
